Legend:
Details in all cases: both partners purified
[1] = biological target: T1, amyloid β (1–42) oligomers (UniProt P05067 672-713); experiment: co-sedimentation
T1 construct: also called Aβ(1–42)_(oligo); Aβ_(oligo)

[2] = biological target: T1, amyloid β (1–42) oligomers; experiment: […]) in 30 mM Tris-HCl pH 7.4; […]
[3] = biological target: T1, amyloid β (1–42) oligomers; experiment: […] (40–80 μM) […] (160–300 μM) in 30 mM Tris-HCl pH 7.4; […]

Binder | stoichiometry N [1] | stoichiometry N [2] | binding result [3]
C-terminally truncated human prion protein huPrP(23–144) (domain or fragment, also called N-terminal construct huPrP(23–144); huPrP(23–144)exc) KKRPKPGGWNTGGSRYPGQGSPGGNRYPPQGGGGWGQPHGGGWGQPHGGGWGQPHGGGWGQPHGGGWGQGGGTHSQWNKPSKPKTNMKHMAGAAAAGAVVGGLGGYMLGSAMSRPIIHFGSD | 3.7 | 8.6 | –
recombinant full-length human prion protein huPrP(23–230) (natural protein, also called full-length huPrP) not shown | – | – | binds
